Laboratory results published in publication PMC9664764 (iScience, 2022).

Target: T1, full-length Spike of SARS-CoV-2 on transfected 293T cells (SARS-CoV-2, UniProt P0DTC2)
T1 construct: also called Spike-expressing cells; Wuhan-hu-1 Spike
Test: flow cytometry on cells
Settings: one partner purified

B1: Ab159 (antibody, V domains shown)
VH: QVQLVESGGGLVKPGGSLRLSCAASGFTFNNAWMSWVRQAPGKGLEWVGRIKSKTDGGTTDYAAPVKGRFTFSRDDSKNTLYLQMSSLKTEDTALYYCTTADYDILTGTPASPYWGQGTLVTVSS
VL: DIQMTQSPSSLSASVGDRVTITCRASQSITNYLNWYQQKPGKAPKFLIYAASSLQGGVPSRFRGSGSGTDFTLTISSLQPEDFATYYCQQTYSTLWTFGQGTKVEIK
notes: copies: 2 + 2
- binding result: binds
